Results reported in the supplement of paper PMC10567573.

B1: PLK2 (parent)
chain: MELLRTITYQPAASTKMCEQALGK

Variants of: B1
Assay: protein stability index of a GFP-peptide fusion (GPS, HEK-293T) (PSI 1-6); higher = more stable
Settings: c terminus: a fixed tail appended
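Also: lentivirally expressed fusions sorted by FACS into six bins by GFP to DsRed ratio, PSI derived from sequencing read proportions per bin multiplied by bin number.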

Protein stability index of substitutions, site by site:
S14: H 3.11, V 2.44, W 3.03, E 2.3, Q 2.5, C 2.5, A 3.14, R 2.05, L 1.64, N 3.48, Y 3.88, T 2.5, P 1.5, I 1.61, K 2.24, M 2.33, G 1.9, F 2.49, D 1.68
C18: L 2.71, A 3.42, I 2.49, F 2.19, T 2.67, R 2.85, S 2.81, D 1.94, P 3.07, E 1.96, V 2.26, W 2.17, N 1.95, Y 1.01, M 2.67, Q 1.57, G 3, H 2.34, K 1.61
L22: C 2.54, S 1.52, N 2.31, A 2.29, R 1.89, D 1.87, T 2.43, W 2.86, G 3.33, F 2.92, I 2.42, V 2.82, K 1.66, H 3.36, E 2.21, M 1.57, P 1.79, Y 2.79, Q 2.02
K16: D 2.38, S 2.34, N 2.01, F 1.83, I 2.61, G 1.81, E 2.18, M 1.85, V 1.96, A 2.13, Y 3.02, L 1.84, P 2.02, T 2.55, C 2.95, W 2.05, R 2.07, H 1.76, Q 2.22
G23: R 1.34, W 3.02, E 2.22, H 2.88, P 2.27, M 2.28, L 3.53, N 2.37, F 2.36, C 2.96, K 2.94, V 1.97, S 3.38, I 1.97, T 1.46, A 2.64, D 1.93, Y 1.9, Q 1.87
M17: S 2.33, I 2.18, P 2.04, W 2.46, A 2.37, K 2.98, C 2.07, D 2.02, V 2.98, L 2.84, Y 1.8, G 1.53, F 1.52, R 2.68, N 2.19, T 2.74, Q 2.65, H 2.26, E 1.86
Q20: I 2.18, S 1.75, K 2.22, N 1.69, T 3.59, H 2.51, F 2.08, E 1.78, G 2.7, V 1.6, L 2.38, M 3.03, W 2.02, C 3.11, P 2.62, R 2.71, Y 2.58, A 2.63, D 1.95
I7: P 2.12, Q 2.79, K 3.24, M 2.85, Y 2.6, N 3.19, G 3.72, F 1.94, W 2.27, E 2.89, H 2.8, R 3.09, S 2.54, D 4.13, L 2.03, T 1.97, V 1.97
K24: E 1.41, D 2.73, W 3.92, N 2.59, M 3.29, G 1.65, S 2.47, A 2.89, V 2.86, T 2.21, Q 1.89, H 3.08, R 1.98, I 3.23, C 2.46, L 3.19, P 2.65, F 3.31
T8: R 2.5, A 2.94, I 3.71, N 2.68, G 2.44, K 2.25, D 2.01, P 1.97, V 2.49, S 2.21, L 2.91, C 2.32, H 2.03, M 1.96, Y 2.93, F 2.17, W 2.55, E 1.78, Q 1.94
A12: T 2.81, R 2.34, G 2.32, V 2.4, E 2.58, M 1.47, H 2.41, D 1.82, K 2.03, C 2.82, N 2.8, F 2.97, Q 2.03, W 1.79, S 1.56, I 2.35, P 2.18, Y 2.21, L 2.57
E19: D 2.27, F 2.15, Y 2.82, S 1.38, N 2.28, L 2.52, K 2.63, I 2.42, P 3.73, H 2.09, A 2.59, C 2.09, T 2.84, G 2.87, Q 1.52, V 2.46, R 2.59
Q10: Y 3.24, I 2.81, D 2.11, W 2.6, R 2.97, P 2.83, A 2.79, M 1.99, L 2.49, T 2.12, N 3.54, S 2.54, K 2.78, E 2.5, G 3.21, V 4.15, C 1.28, H 1.81
A13: W 1.82, R 2.39, S 3.29, M 2.88, G 2.97, N 2.54, H 2.36, Q 3.13, E 2.09, K 2.61, F 2.33, P 1.74, D 2.51, C 3.34, V 1.96, I 1.82, Y 2.42, L 2.43, T 1.15
T15: E 2.53, R 1.44, G 2.53, S 2.41, Q 2.87, W 3.77, Y 2.83, L 2.23, C 2.07, F 1.79, M 2.87, D 2.95, I 2.39, K 1.68, V 1.54, P 1.58, A 2.17, N 2.46, H 3.23
A21: Q 2.98, F 1.94, D 2.17, Y 2.16, V 2.5, I 3.11, E 2.46, S 2, L 2.7, W 3.26, P 2.28, N 2.22, G 2.42, K 1.51, C 2.68, T 2.79, M 2.21, R 2.69, H 1.94
Y9: F 2.05, E 2.05, C 2.38, M 1.89, D 2, R 2.19, N 2.16, I 2.34, Q 2.01, G 2.46, A 2.52, P 2.04, V 2.11, W 1.45, T 2.29, H 2.1, S 3.53, L 1.73, K 1.64
P11: G 2.1, D 1.6, L 4.39, Q 2.65, A 2.12, S 3.09, E 1.91, R 2.16, T 2.72, K 1.93, I 2.82, H 2.39, V 3.59, F 2.52, Y 2.69, M 2.15, N 1.82
